Experimental data from paper PMC9482650, “Quantitative fragmentomics allow affinity mapping of interactomes” (Nature Communications, 2022).

T1: ARHGAP21, Q5T5U3
T1 sequence (Q5T5U3 45-169, limits assumed, looked up): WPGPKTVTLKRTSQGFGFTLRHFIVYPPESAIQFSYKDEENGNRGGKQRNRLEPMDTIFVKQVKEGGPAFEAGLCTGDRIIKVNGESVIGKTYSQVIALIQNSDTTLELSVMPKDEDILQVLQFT

T2: HTRA3, P83110
T2 sequence (P83110 354-453, limits assumed, looked up): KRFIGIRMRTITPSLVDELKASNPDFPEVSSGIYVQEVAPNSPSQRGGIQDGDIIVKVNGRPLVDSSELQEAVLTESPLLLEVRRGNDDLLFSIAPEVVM

T3: GRIP1_7, Q9Y3R0
T3 sequence (Q9Y3R0 999-1096, limits assumed, looked up): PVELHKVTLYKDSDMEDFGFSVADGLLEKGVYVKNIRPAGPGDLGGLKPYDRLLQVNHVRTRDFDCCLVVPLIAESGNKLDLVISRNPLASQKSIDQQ

T4: TX1BP3, O14907
T4 sequence (O14907 10-122, limits assumed, looked up): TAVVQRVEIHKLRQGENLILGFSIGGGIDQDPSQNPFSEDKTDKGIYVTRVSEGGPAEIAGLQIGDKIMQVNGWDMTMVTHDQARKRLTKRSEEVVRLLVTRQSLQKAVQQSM

T5: SYNJ2BP, P57105
T5 sequence (P57105 8-110, limits assumed, looked up): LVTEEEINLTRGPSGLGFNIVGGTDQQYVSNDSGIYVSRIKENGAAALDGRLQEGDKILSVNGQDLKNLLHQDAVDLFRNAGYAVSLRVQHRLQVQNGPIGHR

T6: DFNB31_2, Q9P202
T6 sequence (Q9P202 274-371, limits assumed, looked up): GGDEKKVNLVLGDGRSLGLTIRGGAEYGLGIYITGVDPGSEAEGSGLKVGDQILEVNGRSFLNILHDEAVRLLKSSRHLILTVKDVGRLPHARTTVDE

T7: PDZD2_2, O15018
T7 sequence (O15018 329-429, limits assumed, looked up): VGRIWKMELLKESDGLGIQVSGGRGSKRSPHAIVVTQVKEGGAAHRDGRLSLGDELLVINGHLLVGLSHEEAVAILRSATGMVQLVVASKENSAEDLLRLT

T8: LIN7A, O14910
T8 sequence (O14910 103-200, limits assumed, looked up): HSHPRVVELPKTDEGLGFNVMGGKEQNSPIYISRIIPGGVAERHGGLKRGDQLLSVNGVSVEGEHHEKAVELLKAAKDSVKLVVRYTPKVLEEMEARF


What was measured:
Assay in all cases: holdup assay
Design in all cases: key: below the threshold = too weak to quantify, mostly under pKd 3.1 to 4
Settings in all cases: plain residues with an end cap or a label only (N-terminal biotin on a linker: ado-ado)
IL16_3, Q14005 = biological target: IL16_3, Q14005
Chain of IL16_3, Q14005 (Q14005 1107-1207): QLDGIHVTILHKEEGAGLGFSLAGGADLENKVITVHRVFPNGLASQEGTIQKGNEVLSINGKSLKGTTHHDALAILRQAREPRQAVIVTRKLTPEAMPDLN

ARHGAP21, Q5T5U3 = biological target: T1, ARHGAP21, Q5T5U3
MAGI3_2, Q5TCQ9 = biological target: MAGI3_2, Q5TCQ9
Chain of MAGI3_2, Q5TCQ9 (Q5TCQ9 398-503): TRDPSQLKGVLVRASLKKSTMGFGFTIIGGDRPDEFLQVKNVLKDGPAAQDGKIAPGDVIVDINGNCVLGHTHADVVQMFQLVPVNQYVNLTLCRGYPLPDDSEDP

Inadl_8, Q8NI35 = biological target: Inadl_8, Q8NI35
Chain of Inadl_8, Q8NI35 (Q8NI35 1425-1530): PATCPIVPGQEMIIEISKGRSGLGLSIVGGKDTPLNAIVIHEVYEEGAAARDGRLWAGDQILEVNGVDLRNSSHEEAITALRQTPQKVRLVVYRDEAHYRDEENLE

MAGI2_3, Q86UL8 = biological target: MAGI2_3, Q86UL8
Chain of MAGI2_3, Q86UL8 (Q86UL8 600-682): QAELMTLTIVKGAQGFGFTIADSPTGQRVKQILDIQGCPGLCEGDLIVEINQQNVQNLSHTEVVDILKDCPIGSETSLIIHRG

FRMPD2_1, Q68DX3 = biological target: FRMPD2_1, Q68DX3
Chain of FRMPD2_1, Q68DX3 (Q68DX3 770-861): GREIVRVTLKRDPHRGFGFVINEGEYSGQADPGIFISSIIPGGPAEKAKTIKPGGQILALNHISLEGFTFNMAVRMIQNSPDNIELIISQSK

PICK1, Q9NRD5 = biological target: PICK1, Q9NRD5
Chain of PICK1, Q9NRD5 (Q9NRD5 17-115): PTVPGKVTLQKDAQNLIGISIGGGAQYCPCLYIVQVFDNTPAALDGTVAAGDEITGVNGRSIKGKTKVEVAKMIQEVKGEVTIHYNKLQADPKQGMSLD

HTRA3, P83110 = biological target: T2, HTRA3, P83110
GRIP2_3, Q9C0E4 = biological target: GRIP2_3, Q9C0E4
Chain of GRIP2_3, Q9C0E4 (Q9C0E4 238-339): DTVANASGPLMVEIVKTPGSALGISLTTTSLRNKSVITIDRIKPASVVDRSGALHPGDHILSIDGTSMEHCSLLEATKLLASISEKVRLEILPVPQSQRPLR

FRMPD4, Q14CM0 = biological target: FRMPD4, Q14CM0
Chain of FRMPD4, Q14CM0 (Q14CM0 67-160): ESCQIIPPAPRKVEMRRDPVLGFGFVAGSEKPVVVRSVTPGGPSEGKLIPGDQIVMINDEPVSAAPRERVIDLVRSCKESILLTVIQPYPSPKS

GRIP1_7, Q9Y3R0 = biological target: T3, GRIP1_7, Q9Y3R0
DLG4_3, P78352 = biological target: DLG4_3, P78352
Chain of DLG4_3, P78352 (P78352 306-403): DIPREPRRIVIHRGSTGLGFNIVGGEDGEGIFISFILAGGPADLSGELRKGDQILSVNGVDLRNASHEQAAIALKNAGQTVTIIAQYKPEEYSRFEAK

DLG2_2, Q15700 = biological target: DLG2_2, Q15700
Chain of DLG2_2, Q15700 (Q15700 189-283): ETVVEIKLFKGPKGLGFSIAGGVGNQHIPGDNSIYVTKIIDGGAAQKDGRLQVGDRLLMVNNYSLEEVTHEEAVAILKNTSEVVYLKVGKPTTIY

HTRA1, Q92743 = biological target: HTRA1, Q92743
Chain of HTRA1, Q92743 (Q92743 360-477): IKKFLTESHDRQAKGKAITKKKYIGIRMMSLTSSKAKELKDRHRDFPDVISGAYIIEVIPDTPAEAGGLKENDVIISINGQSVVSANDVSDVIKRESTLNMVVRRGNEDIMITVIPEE

Inadl_10, Q8NI35 = biological target: Inadl_10, Q8NI35
Chain of Inadl_10, Q8NI35 (Q8NI35 1673-1763): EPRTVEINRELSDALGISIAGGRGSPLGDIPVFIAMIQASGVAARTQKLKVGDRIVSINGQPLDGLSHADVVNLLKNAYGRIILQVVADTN

Inadl_5, Q8NI35 = biological target: Inadl_5, Q8NI35
Chain of Inadl_5, Q8NI35 (Q8NI35 673-780): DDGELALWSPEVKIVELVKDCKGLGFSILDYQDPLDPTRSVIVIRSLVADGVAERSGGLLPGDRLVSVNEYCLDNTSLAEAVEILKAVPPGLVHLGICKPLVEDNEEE

TJP1_2, Q07157 = biological target: TJP1_2, Q07157
Chain of TJP1_2, Q07157 (Q07157 181-274): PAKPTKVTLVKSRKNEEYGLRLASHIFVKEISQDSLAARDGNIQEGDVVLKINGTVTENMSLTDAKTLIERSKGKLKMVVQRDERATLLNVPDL

TX1BP3, O14907 = biological target: T4, TX1BP3, O14907
GORASP1, Q9BQQ3 = biological target: GORASP1, Q9BQQ3
Chain of GORASP1, Q9BQQ3 (Q9BQQ3 1-208): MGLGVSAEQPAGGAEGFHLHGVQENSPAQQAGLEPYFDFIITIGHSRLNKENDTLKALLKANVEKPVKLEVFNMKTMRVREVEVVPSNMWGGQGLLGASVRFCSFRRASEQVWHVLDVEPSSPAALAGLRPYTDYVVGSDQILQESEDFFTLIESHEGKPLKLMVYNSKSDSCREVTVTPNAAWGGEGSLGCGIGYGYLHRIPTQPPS

Inadl_2, Q8NI35 = biological target: Inadl_2, Q8NI35
Chain of Inadl_2, Q8NI35 (Q8NI35 238-335): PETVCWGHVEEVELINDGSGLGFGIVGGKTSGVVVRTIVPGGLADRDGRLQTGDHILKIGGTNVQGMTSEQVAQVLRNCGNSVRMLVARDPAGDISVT

SYNJ2BP, P57105 = biological target: T5, SYNJ2BP, P57105
LNX1_2, Q8TBB1 = biological target: LNX1_2, Q8TBB1
Chain of LNX1_2, Q8TBB1 (Q8TBB1 371-470): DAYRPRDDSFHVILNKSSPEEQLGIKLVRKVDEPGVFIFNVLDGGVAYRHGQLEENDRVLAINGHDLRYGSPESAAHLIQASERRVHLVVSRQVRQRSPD

MAGI2_5, Q86UL8 = biological target: MAGI2_5, Q86UL8
Chain of MAGI2_5, Q86UL8 (Q86UL8 915-1017): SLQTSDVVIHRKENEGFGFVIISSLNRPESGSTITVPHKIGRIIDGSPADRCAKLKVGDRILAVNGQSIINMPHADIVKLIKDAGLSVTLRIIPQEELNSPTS

DFNB31_2, Q9P202 = biological target: T6, DFNB31_2, Q9P202
GRID2IP_2, A4D2P6 = biological target: GRID2IP_2, A4D2P6
Chain of GRID2IP_2, A4D2P6 (A4D2P6 272-370): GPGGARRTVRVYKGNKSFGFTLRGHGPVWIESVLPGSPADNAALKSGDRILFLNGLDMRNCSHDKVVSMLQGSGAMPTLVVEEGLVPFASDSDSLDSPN

SCRIB_2, Q14160 = biological target: SCRIB_2, Q14160
Chain of SCRIB_2, Q14160 (Q14160 857-960): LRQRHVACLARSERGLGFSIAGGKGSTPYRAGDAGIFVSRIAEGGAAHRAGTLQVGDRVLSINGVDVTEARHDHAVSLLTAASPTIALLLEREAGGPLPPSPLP

DLG5_1, Q8TDM6 = biological target: DLG5_1, Q8TDM6
Chain of DLG5_1, Q8TDM6 (Q8TDM6 617-713): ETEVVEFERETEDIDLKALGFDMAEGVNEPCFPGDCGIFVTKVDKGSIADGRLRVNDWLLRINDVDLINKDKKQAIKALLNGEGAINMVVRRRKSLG

PDZD2_2, O15018 = biological target: T7, PDZD2_2, O15018
LIN7A, O14910 = biological target: T8, LIN7A, O14910

Row | pKd (IL16_3, Q14005) | pKd (ARHGAP21, Q5T5U3) | pKd (MAGI3_2, Q5TCQ9) | pKd (Inadl_8, Q8NI35) | pKd (MAGI2_3, Q86UL8) | pKd (FRMPD2_1, Q68DX3) | pKd (PICK1, Q9NRD5) | pKd (HTRA3, P83110) | pKd (GRIP2_3, Q9C0E4) | pKd (FRMPD4, Q14CM0) | pKd (GRIP1_7, Q9Y3R0) | pKd (DLG4_3, P78352) | pKd (DLG2_2, Q15700) | pKd (HTRA1, Q92743) | pKd (Inadl_10, Q8NI35) | pKd (Inadl_5, Q8NI35) | pKd (TJP1_2, Q07157) | pKd (TX1BP3, O14907) | pKd (GORASP1, Q9BQQ3) | pKd (Inadl_2, Q8NI35) | Binder | further results
1 | below the threshold | below the threshold | below the threshold | 3.5 | 3.58 | below the threshold | below the threshold | below the threshold | below the threshold | 3.48 | below the threshold | 3.75 | below the threshold | below the threshold | below the threshold | below the threshold | below the threshold | below the threshold | below the threshold | below the threshold | PEEGKKQSQC [GAGE12J, A6NER3] | pKd (SYNJ2BP, P57105): 3.54; pKd (LNX1_2, Q8TBB1): below the threshold; pKd (MAGI2_5, Q86UL8): below the threshold; pKd (DFNB31_2, Q9P202): below the threshold; pKd (GRID2IP_2, A4D2P6): 3.49; pKd (SCRIB_2, Q14160): below the threshold; pKd (DLG5_1, Q8TDM6): below the threshold; pKd (PDZD2_2, O15018): 4.01; pKd (LIN7A, O14910): below the threshold
2 | below the threshold | below the threshold | below the threshold | below the threshold | below the threshold | below the threshold | below the threshold | below the threshold | below the threshold | below the threshold | below the threshold | below the threshold | below the threshold | below the threshold | below the threshold | below the threshold | below the threshold | below the threshold | below the threshold | below the threshold | EGGKKRESEA [APPL1, Q9UKG1] | pKd (SYNJ2BP, P57105): below the threshold; pKd (LNX1_2, Q8TBB1): below the threshold; pKd (MAGI2_5, Q86UL8): below the threshold; pKd (DFNB31_2, Q9P202): below the threshold; pKd (GRID2IP_2, A4D2P6): below the threshold; pKd (SCRIB_2, Q14160): below the threshold; pKd (DLG5_1, Q8TDM6): below the threshold; pKd (PDZD2_2, O15018): below the threshold; pKd (LIN7A, O14910): below the threshold
3 | below the threshold | below the threshold | 3.63 | 3.7 | below the threshold | below the threshold | below the threshold | below the threshold | below the threshold | below the threshold | below the threshold | below the threshold | 3.49 | below the threshold | below the threshold | below the threshold | below the threshold | below the threshold | below the threshold | below the threshold | SSGSTSSSRI [ADGRG1, Q9Y653] | pKd (SYNJ2BP, P57105): below the threshold; pKd (LNX1_2, Q8TBB1): below the threshold; pKd (MAGI2_5, Q86UL8): below the threshold; pKd (DFNB31_2, Q9P202): below the threshold; pKd (GRID2IP_2, A4D2P6): 4.02; pKd (SCRIB_2, Q14160): below the threshold; pKd (DLG5_1, Q8TDM6): below the threshold; pKd (PDZD2_2, O15018): 4.18; pKd (LIN7A, O14910): below the threshold
4 | below the threshold | 3.73 | 5.32 | 3.5 | 4.17 | below the threshold | below the threshold | below the threshold | below the threshold | below the threshold | below the threshold | 4.01 | 5.36 | 4.6 | below the threshold | 3.56 | 3.67 | 4.15 | 4.36 | below the threshold | PKLMGVETVV [DUSP10, Q9Y6W6] | pKd (SYNJ2BP, P57105): 4.69; pKd (LNX1_2, Q8TBB1): 3.96; pKd (MAGI2_5, Q86UL8): 4.06; pKd (DFNB31_2, Q9P202): below the threshold; pKd (GRID2IP_2, A4D2P6): below the threshold; pKd (SCRIB_2, Q14160): 3.98; pKd (DLG5_1, Q8TDM6): below the threshold; pKd (PDZD2_2, O15018): 4.22; pKd (LIN7A, O14910): 3.58
5 | 3.74 | 3.87 | below the threshold | 3.52 | 3.58 | below the threshold | below the threshold | below the threshold | 3.53 | 3.71 | below the threshold | 3.62 | 3.57 | below the threshold | below the threshold | 3.58 | below the threshold | below the threshold | 3.53 | below the threshold | QLAEIAESGL [ITK, Q08881] | pKd (SYNJ2BP, P57105): 3.84; pKd (LNX1_2, Q8TBB1): below the threshold; pKd (MAGI2_5, Q86UL8): below the threshold; pKd (DFNB31_2, Q9P202): below the threshold; pKd (GRID2IP_2, A4D2P6): 3.61; pKd (SCRIB_2, Q14160): 3.6; pKd (DLG5_1, Q8TDM6): 3.78; pKd (PDZD2_2, O15018): 3.68; pKd (LIN7A, O14910): 3.65
